Experimental data: patent publication US20080248008A1, “Inhibitors of Protein Kinase a Anchoring” (priority 2004, published 2008)

Key:
[1] = molecular target: T1, RIα (Bos taurus, UniProt P00514); experiment: Fluorescence polarization, dissociation constant for RI; type: binding, bovine; settings: qualitative
T1 construct: made in house; host or cells: E. coli BL21 (B121 [sic])
Protocol: Fluorescence Polarization. FITC-labeled peptides (SynPep, San Diego) that were used for fluorescence polarization studies included MEME3 (LEQYANQLADQIIKEATEK(5-Carboxyfluorescein)-CONH2) and MEME3 scrambled peptide (IEKELAQQYQNADAITLEK(5-Carboxyfluorescein)-CONH2). Peptides (0.5 nM for RI experiments and 1 nM for RII experiments) were suspended to working dilutions in phosphate-buffered saline containing 5 μg/μl BSA, pH 7.0. Increasing concentrations of recombinant bovine RI wt or recombinant murine RII were added to a PBS solution and mixed with each FITC-labeled peptide. Each sample was incubated for 2.5 hours. Fluorescence polarization was measured on a Beacon 2000 (Panvera, Madison, Wis.), following the manufacturer's instructions. Saturation binding curves were generated with PRISM graphing software (GraphPad, San Diego). Dissociation constants (Kd) were calculated from the nonlinear regression curve from averages of minimum three individual experiments.
Protein expression and purification. Human RI, Bovine RI and N-terminal deletions thereof or murine RII was expressed in E. coli B121 by IPTG induction. The RI containing pellet was incubated in lysis buffer (10 mM MOPS, pH 6.5, 100 mM NaCl, 10 μM DTT added protease inhibitors) and sonicated (Branson Sonifier 250) for 1 minute in three intervals at 0° C. […]

[2] = system: Lck-PY505; experiment: Lck-PY505 level in lipid rafts of forskolin-stimulated T cells; type: cell-based, human; settings: 25 μM, 12 hours, n=3
Protocol: Antibodies. RI or RII were immunoprecipitated with polyclonal antibodies against human RI or human RII at a 3 μg/ml dilution (Santa Cruz Biotechnology). MEME3 or scrambled peptide was immunoprecipitated with 1.5 μl of anti-GFP antiserum (Invitrogen). Monoclonal (Transduction laboratories) or polyclonal antibodies (Santa Cruz Biotechnology) against human RIα and RIIα were used at a 1 μg ml^−1 or 0.5 μg ml^−1 ilution for Western blotting. Polyclonal antibodies against human Cα (Santa Cruz Biotechnology) and LAT (Upstate Biotechnology) were used at a 0.4 μg ml^−1 and a 1 μg ml^−1 dilution for Western blotting, respectively. Polyclonal antibodies against LckPY505 (Cell Signaling) were used at a 1:1000 dilution and polyclonal antibody raised towards PS364 in Csk were used as previously described (Yaqub et al., Biochem. J., 372: p 271-8, 2003). Polyclonal antibodies against StAR (Affinity BioReagents) were used at 1 μg ml^−1. […]
Peripheral blood T cells were incubated in the absence (FIG. 20, A) or presence of 25 μM MEME3-Arg11 (B) or 25 μM SM3-Arg11 (C) for 12 hours and stimulated with forskolin to activate the PKA-Csk inhibitory pathway. […] Next, fractions were analysed by 10% PAGE, blotting onto a PVDF membrane and immunoblotting using phosphospecific antibodies to Lck-PY505 (FIG. 20, panels A-C).

[3] = molecular target: PKA-RIIα (Homo sapiens, UniProt P13861); experiment: Immunofluorescence of PKA-RIIα at centrosomes in human T cells; type: cell-based; design: endogenous in cells; host or cells: human peripheral blood CD3+ T cells; settings: human peripheral blood T cells
Protocol: Blots were developed by using Supersignal West Pico substrate (Pierce). For immunofluorescence polyclonal and monoclonal antibodies against RIα (Biogenesis), RIIα (Transduction laboratories) and AKAP450 (A24, Tasken et al., 2001, J. Biol. Chem, 276:21999-22002) were used as primary antibodies. Secondary antibodies (all Molecular Probes) were Alexa-488 conjugated anti-mouse and anti-rabbit IgG (both goat) and Alexa-555 anti-rabbit IgG (goat).
Immunofluorescence analysis of cells was performed as previously described (Collas, P. et al., 1996, J. Cell Biol. 135, 1715-1725). RI was detected by using an anti-RI monoclonal antibody (Transduction Laboratories) as a primary antibody at a […] and Alexa-488 as a secondary antibody (1:600, Goat anti Mouse IgGs, Molecular Probes). Immunofluorescence was performed on Y1 cells attached to collagen/fibronectin coated coverslips. Mitochondria were stained using MitoTracker Red CMXRos (Molecular Probes) in fresh medium with incubation at 37° C. for 30 min prior to cell fixation. All cells were washed in PBS, fixed with 3% paraformaldehyde and permeabilised using 0.1% Triton X-100. […] Alternatively, fluorescently labeled cells were examined using a Leica TCS SP1 confocal fluorescence microscope (Leica, Heidelberg, Germany) equipped with an Ar (488 nm) and two He/Ne (543 and 633 nm) laser lines. […]

T1 sequence (P00514 whole entry): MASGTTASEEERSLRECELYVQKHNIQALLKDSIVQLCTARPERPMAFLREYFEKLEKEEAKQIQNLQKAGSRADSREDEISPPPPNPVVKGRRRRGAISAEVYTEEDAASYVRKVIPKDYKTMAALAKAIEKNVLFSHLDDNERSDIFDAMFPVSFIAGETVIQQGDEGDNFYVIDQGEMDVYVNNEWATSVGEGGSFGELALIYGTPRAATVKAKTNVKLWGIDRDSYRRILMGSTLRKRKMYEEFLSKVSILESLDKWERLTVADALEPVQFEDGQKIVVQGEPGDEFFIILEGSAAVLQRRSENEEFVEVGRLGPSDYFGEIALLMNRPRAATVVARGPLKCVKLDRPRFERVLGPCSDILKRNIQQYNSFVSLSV
Chain of PKA-RIIα (P13861 whole entry): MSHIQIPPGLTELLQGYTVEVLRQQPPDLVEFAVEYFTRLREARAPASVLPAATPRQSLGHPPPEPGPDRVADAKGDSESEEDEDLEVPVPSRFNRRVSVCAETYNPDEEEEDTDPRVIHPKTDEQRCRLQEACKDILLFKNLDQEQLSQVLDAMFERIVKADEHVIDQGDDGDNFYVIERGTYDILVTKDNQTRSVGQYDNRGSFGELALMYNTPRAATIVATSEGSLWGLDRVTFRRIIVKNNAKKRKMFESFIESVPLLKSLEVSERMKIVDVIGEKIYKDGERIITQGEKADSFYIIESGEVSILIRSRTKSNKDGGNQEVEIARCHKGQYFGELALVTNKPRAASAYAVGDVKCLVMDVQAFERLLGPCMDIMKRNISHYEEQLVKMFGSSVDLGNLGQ

| Substance | interaction with RI subunit [1] | interaction with RI subunit ([1]; listed as control peptide) | reduction of LckPY505 levels compared to SM3-Arg11 treated cells [2] | displacement of PKA-RIIα from centrosomes [3] |
| --- | --- | --- | --- | --- |
| IEKELAQQYQNADAITLE [SM3, scrambled MEME3 negative control peptide, reference compound] | No RIα binding | did not interact with either R subunit | – | – |
| LEQYANQLADQIIKEATERRRRRRRRRrr [MEME3-Arg11] | – | – | 60% | no displacement of PKA-RIIα |
